The results in this text go back to PMC9712074 (Cell Reports, 2022).

To fix the notation:
B1: BD55-5239 (antibody, V domains shown)
VH: QVQLQESGPGLVRPSQTLSLTCSVSGGSISSGTYNWAWIRQPPGKDLEWIGHIYHSGSTYYNPSLRSRVNMSVDTSKNQFSLKLSSVTAADTAVYYCARERGPIAEFDFWGQGILVTVSS
VL: DIQMTQSPSSVSASIGDGVTITCRASQGISSWLAWYQQRPGKAPKLLISAAFTLQSGVPSRFSARGSGTDFTLIISNLQPEDFATYYCQQANSFPPTFGQGTKLEIK
B2: BD55-5245 (antibody, V domains shown)
VH: QVQLVQSGAEVKKPGSSVKVSCKASGGSLSSDGINWVRQAPGQGLEWLGRIIPIPGIADNAQKFQGRVTITADKSTSTAYMELSSLRSEDTAVYYCARAPPRGYSGYDLLGNDAFDIWGQGTMVTVSS
VL: QSVLTQPPSVSGAPGQRVTISCTGSSSNIGAGYDVHWYQQLPGTAPKLLLYGNTNRPSGVPDRFTGSKSGTSASLAITGLQAEDEADYYCQSYDTSLSGSYVFGTGTKVAVL
B3: BD55-5259 (antibody, V domains shown)
VH: QITLKESGPTLVKPTQTLTLTCTFSGFSLTMPEVGVAWVRQPPGKALEWLALIYGDDNKRYSPSLESRLTITKDSSKNQVVLTMTNLDSVDTATYYCARRKFLWDSDPVAFDYWGLGTLVIVSS
VL: DIVMTQTPLSLPVTLGQPASISCRSSQSLVHIDGNIYLSWLQQRPGQPPRLLIYKISNRFSGVPDRFSGSGSGTDFTLKISRVEAEDVGVYYCMQATQFPHEMYTFGQGTKLEIR
B4: BD55-5263 (antibody, V domains shown)
VH: QVQLVQSGAEVKKPGASVKVSCKGSGYIFTNYGVSWVRQAPGQGLECMGWISAYNGNTDYTQKFQGRVTMTTDTSTSTAYMELRSLTSDDTAVYYCARAAHNWGPEDAFDIWGQGSMVTVSS
VL: not shown
B5: BD55-5271 (antibody, V domains shown)
VH: QVTLKESGPVLVKPTETLTLTCTVSGISLNNARMAVSWIRQPPGKALEWLAHILSNDEKSFSKSLTSRLTISKDSSKNQVVLRLTNMDPVDTGTYYCARIVYDSSSYYYSGDNWFDPWGQGTQVTVSS
VL: SYELTQPPSVSVSPGQTARITCTGDAFPNQYAYWYQQKSGQAPVLVIYKDSERPSGIPERFSGSSAGTTVTLTISGVQAEDEADYYCQSADSRGVVFGGGTKVTVL
B6: BD55-5250 (antibody, V domains shown)
VH: QVQLVQSGAEVKKPGASVKVSCKASGYTFTSNAIHWVRQAPGQRLEWMGWIMADNGYTKYSENFQGRVTITRDTSASTVYMEVSSLRSGDTAVYYCAREGSMWYSTYFDHWGQGTLVTVSS
VL: DIQMTQSPSSLSASVGDRVTITCRASQSISSYLTWYQQKSGTAPKLLIYAASSLQSGVPSRFSGSGSGTDFTLTISSLQPEDFATYYCQQSYTDPFTFGPGTKVDFK
B7: BD55-5267 (antibody, V domains shown)
VH: QVQLQESGPGLVKPSGTLSLTCAVSGGSISSSNWWSWVRQPPGKGLEWIGEIYHSGSTNYNPSLKSRVTISVDKSKNKFSLKLSSVTAADTAVYFCARAGWIESGYDAFVGYFDYWGQGTLVTVSS
VL: DIQMTQSPSSLSASVGDRVTITCRASQGISSSLAWYQQKPGKAPDLLLYAASGLESGVPSRFSGSGSGTDFTLSISSLQPEDFATYYCQQYYSPPRTFGQGTKLEIK
B8: BD55-5276 (antibody, V domains shown)
VH: EVHLEESGGGLVHPGRSLRLSCAASGFTLDEYAMHWVRRAPGKGLEWVSGISWNSGARGYADSVKGRFTISRDNAKNSLYLQMNSLRAEDTAFYYCAKDNSHGSGTAWDWLDSWGQGTLVTVSS
VL: NFMLTQPHSVSESPGKTVTISCTRSSGTITNNYVQWYRQRPGSSPTTVIFEDNQRPSGVPDRFSGSIDSSSNSASLTISGLKTEDEADYYCQSHDSSNWVFGGGTKLTVL
B9: BD55-5265 (antibody, V domains shown)
VH: EVQLVQSGAEVKKPGESLKISCKGAGYIFTHYWIAWVRQMPGKGLEWMGIVHPGDSDTRYSPSFQAQVTISADKSINTAYLQWSSLKASDTAIYFCARHGVHSGYSGYDRWDGHYYGMDVWGQGTTVTVSA
VL: SYVLTQPPSVSVAPGKTARITCGGNNIGSKSVHWYQQKPGQAPVLVVYDGSERPSGIPERFSGSNSENTATLTISRVEAGDEADYYCQVWNDNSDSLVFGTGTEVTVL
B10: BD55-5242 (antibody, V domains shown)
VH: QVQLVQSGAEVKKPGASVKVSCKAFGYTFNSNYIHWVRQAPGQGLEWMGVIDPSGGATSYAQKFQGRVTMTRDTSTNTVYMELSSLRSEDTAVYYCARDLGDDVSRGYSGYDFLDLYGMDVWGQGTTVTVS
VL: not shown
B11: BD55-5268 (antibody, V domains shown)
VH: QVQLQQRGAGLLRPSETLSLTCDVSGGSFSGYYWNWVRQPPGKGLEWIGDIDLAGDNYNPSLKSRVTMSIDASKNQFSLRLSSVTAADTAVYFCVRAPNLGWFGPKQGAFDLWGQGTVVIVSS
VL: not shown
B12: BD55-5264 (antibody, V domains shown)
VH: QVQLVQSGAEVKKPGASVKVSCKVSGYTLTKFSIHWVRQGHGKGLEWMGGFDIGEGGTIYAQKFQGRVTMTEDTSTDTSYMELSSLRSEDTAMYYCATDGEYSSGWAGVKLWGQGTLVTVSS
VL: DIQMTQSPSTLSASVGDRVTITCRASQSISSWLAWYQQKPGKAPKLLIYKASSLESGVPSRFSGSGSGTEFTLTISSLQPDDFATYYCQQCDSYPWTFGQGTKVEIK
B13: BD55-5248 (antibody, V domains shown)
VH: QVQLVESGGGVVQPGRSLRLSCAASGFTFSSYDMYWVRQAPGKGLEWVAVISYDGSSNFYADSVKGRFTISRDNSRNTLSLQMNSLRAEDTAVYFCARERREQLTPVFDHWGQGTLVTVSS
VL: DIQMTQSPSSLSASVGDRVTITCRASQSISSYLNWYQQRPGKAPKLLIYSASTLESGVPSRFSGSGSGTDFTLTINSLQPEDFATYYCQQSYSTLALTFGGGTKVEIK
B14: BD55-5256 (antibody, V domains shown)
VH: QVQLVQSGTEVKKPGSSVKVSCKASGGPFSGYVINWVRQAPGQGLEWMGGIIPVFETVKYAQKFQGRVTITAGESASTAYMELNSLRSEDTAVYYCAKSKYHSGYDVLTGRADFSLPFDYWGQGTLVTVSS
VL: DIQMTQSPSSLSASVGDRVIITCQASQDITNSLSWYQQKPGKAPKLLIYGAFNLETGVPSRFSGSGSGTDFTFAISSLQPEDIATYFCQQYADLPYTFGQGTKLDIK
B15: BD55-5251 (antibody, V domains shown)
VH: QITLKESGPALVKPTQTLTLTCTFSGFSLSSNGVGVGWIRQSPGKALEWLALIYWDDDKRYTPSLKKRLTVTKDTSKNQVVLTMTNMDPVDTATYYCAHMARPRGLFINPSWFDPWGQGTLVTVSS
VL: QSVLTQPPSASGTPGQRVTISCSGSSSNIGSNTIDWYQQLPGTAPRLLIYGHDLRPSGVPDRFSGSQSGTSASLVISGLQSEDEADYYCAAWDDSLNGPVFGGGTKLTVL
B16: BD55-3152 (antibody, V domains shown)
VH: QVQLVQSGAEVKKPGASVIVSCKASGYRFISHYIHWVRQAPGQGLEWMGKIDPSGRGTTYAQKLQGRVSVTRDTSTSSVYMALSGLRSDDTAVYYCARDRFPLSDPYVWGSPLGGLDVWGQGTTVIVSS
VL: SYDLTQPPSVSVSPGQTARITCSGDALPSQYVYWYQQRPGQAPVLVMYKDSERPPGIPERFSGSTSGTTATLTITGVQAEDEADYYCQSADASTTYHVFGGGTKVTVV

One experiment addresses SARS-CoV-2 (WT) Spike RBD Protein (His Tag) (SARS-CoV-2 ancestral (Wuhan-Hu-1), UniProt P0DTC2).
As for B1, the binding result is “binds”.

Turning to B2, the binding result is listed as “binds”.

Take B3: the binding result is “binds”.

With B4, the binding result is on record as “binds”.

Consider B5, for which the binding result is on record as “binds”.

Turning to B6, the binding result is reported as “binds”.

As to B7, the binding result is listed as “binds”.

With B8, the binding result is listed as “binds”.

For the molecule B9, the binding result was “binds”.

Regarding B10, the binding result is reported as “binds”.

Turning to B11, the binding result was “binds”.

Regarding B12, the binding result is on record as “binds”.

Regarding B13, the binding result is on record as “binds”.

B14: the binding result is given as “binds”.

Consider B15, for which the binding result was “binds”.

A further experiment concerns the target SARS-CoV-2 Omicron BA.1 RBD (SARS-CoV-2 Omicron BA.1, strain).
Regarding B16, the binding result is recorded as “binds”.
